What was measured:
E. coli = test: MIC and MBC, broth microdilution in CAA medium; assay type: cell-based, Escherichia coli
Description: (§1) The MIC of the LNT113 or antibiotic was determined using modification of the broth microdilution method in a 96-well, round bottom, microplate according to the previously described method (Heselpoth et al., 2019). Exponentially grown cells were diluted to a concentration of 10^6 CFU/ml in a CAA medium, and then cultured with recombinant LNT113 (1-64 μg/ml) or antibiotics at 35° C. for 20 hours. […] The MBC was defined as the lowest concentration of the antibacterial agent with no growth on a plate. All analyses were performed in duplicate.

P. aeruginosa = test: MIC, broth microdilution; assay type: cell-based, Pseudomonas aeruginosa
Description: as §1

K. pneumoniae [1] = test: MIC, broth microdilution; assay type: cell-based, Klebsiella pneumoniae
Description: as §1

E. cloacae = test: MIC, broth microdilution; assay type: cell-based, Enterobacter cloacae
Description: as §1

Salmonella enteritidis = test: MIC, broth microdilution; assay type: cell-based
Description: as §1

Salmonella typhimurium = test: MIC, broth microdilution; assay type: cell-based
Description: as §1

K. pneumoniae [2] = test: Antibacterial activity analysis (colony count after 2 hours in buffer); assay type: cell-based, Klebsiella pneumoniae; conditions: 2 μM
Description: The antibacterial activity of the purified protein was tested for E. coli and various K. pneumoniae strains. The bacterium were grown to an exponential phase (OD600=0.5) and harvested by centrifugation at 12,000×g for 3 minutes. Then, the pellets were washed with reaction buffer solution (20 mM Tris-HCl, pH 7.5) and diluted to about 10^6 cells/ml in the buffer solution. Then, 100 μl bacterial suspension was mixed with the purified endolysin of 100 μl in the reaction buffer solution and incubated at 37° C. for 2 hours. Finally, the mixture was diluted with PBS and loaded on an LB plate. After culturing at 37° C. overnight, the bacterial colonies were counted. All the analysis was performed in triplicate.
The same reaction was performed for the selected subject bacterium in 20 mM HEPES-NaOH, 150 mM NaCl [pH 7.4], and the unique antibacterial activity of Tris and dependence of endolysin for turgor pressure were excluded (FIG. 10a and FIG. 10b). […] The bacterial cells grown geometrically were cultured with 2 μM endolysin in low tonicity buffers (20 mM Tris-HCl, pH 7.5 or 20 mM HEPES, pH 7.5) or high tonicity buffers (buffer solution comprising 150 mM NaCl) at 37° C. for 2 hours. The cells treated with storage buffer solution (20 mM Tris-HCl, pH 7.5, 150 mM NaCl buffer solution (pH 7.5)) were used as a negative control group. The dotted line represents the detection limit (1 Log CFU/ml).

B1: LNT113: fusion polypeptide: Cecropin A, (GGGGS)3 linker, mutant endolysin mtEC340; recombinant form with C-terminal His tag (protein)
chain: MKWKLFKKIEKVGQNIRDGIIKAGPAVAVVGQATQIAKGGGGSGGGGSGGGGSVSRNISNNGIKFTAAFEGFRGTAYRATPNEKYLTIGYGSYGPHVEPGKTITPGQGLLLLNRDMAKAVAAVDAVAHHSLTQSQFDAVCDLVYNAGAGVIAAATGTGKALRSGDVATLRAKLALFINQNGKPLLGLRRRTAGRLALFDGKPWQEAEAIGRAVKG
modifications: synthetic_Met+Cecropin A+GGGGS3 linker+mtEC340
notes: fusion polypeptide: Cecropin A, (GGGGS)3 linker, mutant endolysin mtEC340; recombinant form with C-terminal His tag
E. coli; E. coli ATCC 8739
  MBC: 8 µg/mL
  MIC: 8 µg/mL
E. coli; E. coli ATCC 25922
  MBC: 64 µg/mL
  MIC: 64 µg/mL
E. coli; E. coli ATCC 51739
  MBC: 8 µg/mL
  MIC: 8 µg/mL
E. coli; E. coli CCARM 1A746
  MBC: 4 µg/mL
  MIC: 4 µg/mL
E. coli; E. coli CCARM 1G490
  MBC: 16 µg/mL
  MIC: 16 µg/mL
E. coli; E. coli ECOR 1
  MBC: 8 µg/mL
  MIC: 8 µg/mL
E. coli; E. coli ECOR 2
  MBC: 8 µg/mL
  MIC: 8 µg/mL
E. coli; E. coli ECOR 9
  MBC: 4 µg/mL
  MIC: 4 µg/mL
E. coli; E. coli ECOR 15
  MBC: 32 µg/mL
  MIC: 32 µg/mL
E. coli; E. coli ECOR 35
  MBC: 16 µg/mL
  MIC: 16 µg/mL
E. coli; E. coli ECOR 36
  MBC: >64 µg/mL
  MIC: >64 µg/mL
E. coli; E. coli ECOR 43
  MBC: 16 µg/mL
  MIC: 16 µg/mL
E. coli; E. coli ECOR 45
  MBC: 4 µg/mL
  MIC: 4 µg/mL
E. coli; E. coli ECOR 52
  MBC: >64 µg/mL
  MIC: 64 µg/mL
E. coli; E. coli ECOR 69
  MBC: >64 µg/mL
  MIC: >64 µg/mL
E. coli; E. coli F485
  MBC: 4 µg/mL
  MIC: 4 µg/mL
E. coli; E. coli F524
  MBC: 8 µg/mL
  MIC: 8 µg/mL
E. coli; E. coli F576
  MBC: 4 µg/mL
  MIC: 4 µg/mL
E. coli; E. coli F716
  MBC: >64 µg/mL
  MIC: >64 µg/mL
E. coli; E. coli F852
  MBC: 16 µg/mL
  MIC: 8 µg/mL
E. coli; E. coli FORC81
  MBC: 8 µg/mL
  MIC: 8 µg/mL
E. coli; E. coli UPEC 90
  MBC: 64 µg/mL
  MIC: 64 µg/mL
E. coli; E. coli UPEC 3038
  MBC: 16 µg/mL
  MIC: 16 µg/mL
E. coli; E. coli UPEC 3042
  MBC: 16 µg/mL
  MIC: 16 µg/mL
E. coli; E. coli UPEC 3051
  MBC: 16 µg/mL
  MIC: 16 µg/mL
E. coli; E. coli UPEC 3150
  MBC: 8 µg/mL
  MIC: 8 µg/mL
E. coli; E. coli UPEC 3151
  MBC: 64 µg/mL
  MIC: 64 µg/mL
E. coli; E. coli UPEC 3163
  MBC: 16 µg/mL
  MIC: 16 µg/mL
E. coli; E. coli UPEC 3164
  MBC: 32 µg/mL
  MIC: 32 µg/mL
E. coli; E. coli UPEC 3168
  MBC: 8 µg/mL
  MIC: 8 µg/mL
E. coli; E. coli UPEC 3181
  MBC: 8 µg/mL
  MIC: 8 µg/mL
E. coli; various E. coli strains
  MBC compared with MIC: same as MIC
E. coli; various E. coli strains of Table 2
  MIC in most of the strains: 4 to 64 µg/mL
P. aeruginosa; P. aeruginosa ATCC 15522
  MIC: 8 µg/mL
P. aeruginosa; P. aeruginosa F102
  MIC: 16 µg/mL
P. aeruginosa; P. aeruginosa F125
  MIC: 4 µg/mL
P. aeruginosa; P. aeruginosa F141
  MIC: 16 µg/mL
P. aeruginosa; P. aeruginosa F171
  MIC: 32 µg/mL
P. aeruginosa; P. aeruginosa F388
  MIC: 32 µg/mL
P. aeruginosa; P. aeruginosa PA01
  MIC: 4 µg/mL
K. pneumoniae [1]; K. pneumoniae ATCC 700603
  MIC: 16 µg/mL
K. pneumoniae [1]; K. pneumoniae CCARK 10143
  MIC: 4 µg/mL
K. pneumoniae [1]; K. pneumoniae F144
  MIC: 16 µg/mL
K. pneumoniae [1]; K. pneumoniae Fil8
  MIC: 16 µg/mL
K. pneumoniae [1]; K. pneumoniae KCTO 2208
  MIC: 8 µg/mL
K. pneumoniae [1]; K. pneumoniae P1O4
  MIC: 16 µg/mL
E. cloacae; E. cloacae ATCC 13047
  MIC: 16 µg/mL
E. cloacae; E. cloacae CCARM 0252
  MIC: 4 µg/mL
E. cloacae; E. cloacae CCARM 16003
  MIC: 8 µg/mL
Salmonella enteritidis
  MIC: > 64 µg/mL
Salmonella typhimurium
  MIC: > 64 µg/mL
K. pneumoniae [2]; K. pneumoniae ATCC700603, KCTC2208, CCARM10143, F85, 2 hours, Tris-HCl pH 7.5
  antibacterial activity (number of bacterium): more excellent antibacterial activity
K. pneumoniae [2]; K. pneumoniae KCTC 2208, Tris or Hepes buffer with 150 mM NaCl
  effect of adding NaCl on antibacterial activity: negative effect of salt presence was significantly reduced
K. pneumoniae [2]; K. pneumoniae strains, 2 hours
  increase in activity compared to mtEC340: ≤ 4 log
K. pneumoniae [2]; all tested K. pneumoniae strains
  viable bacterial cells after culturing for 2 hours: No viable bacterial cells were detected

From US12102667B2, “Polypeptides and antibiotics against gram-negative bacterium comprising the same” (priority 2021, dated 2024)
